Reference: US20240301442A1 (Regeneron, published 2024)
Where “and” joins values, the source holds several entries; their conditions need not be identical. Equal values may be shown once.

How the values were obtained:
Zika (prM80E)-mmh = target: T1, Zika (prM80E)-mmh (Zika virus); experiment: ELISA, Zika (prM80E)-mmh coated, mouse serum, anti-human IgG HRP detection
T1 construct: domain: prM80E; also called Zika envelope protein; Lot #REGN4233-L4

[1] = target: recombinant full-length P. aeruginosa PcrV (GenScript) (Pseudomonas aeruginosa)
[2] = target: Zika virus envelope (Env) protein on MR766 virus (Zika virus MR766, UniProt Q32ZE1 291-790); experiment: cell-based or functional assay
[3] = target: PcrV of P. aeruginosa strain 6077 (on live bacteria) (Pseudomonas aeruginosa strain 6077); experiment: cell-based or functional assay

B1: REGN4446 anti-Zika antibody expressed in mouse serum from episomal AAV2/8.CASI.REGN4446 HC T2A RORss LC (antibody, V domains shown)
VH: QVQLVESGGGVVQPGRSLRLSCAASGFTFNYYGMHWVRQAPGKGLEWVAVISYDGTNKYYADSVKGRFTTSRDNSKNTLYLQMNSLRAEDTALYYCARDRGGRFDYWGQGIQVTVSS
VL: EIVLTQSPDTLSLSPGERATLSCRASQSVSSNYLAWYQQKPGQAPRLLIYGASSRATGIPDRFSGSGSGTDFTLTISRLEPEDFAVYYCQRYGTSPLTFGGGTKVEIKR
notes: also called CASI HC T2A RORss LC; AAV2/8.CASI.REGN4446 HC T2A LC
EC50 (Zika (prM80E)-mmh): 296 pM and 521 pM | EC50 [1]: 204000 pM | Neutralization EC50 [2]: 469 pM and 605 pM | Neutralization IC50 [3]: ~8.89 pM
